Experimental data published in patent publication US20210292393A1 (published 2021).
Positions count from the first letter of the chain named.

B1: antibody 276 (antibody, V domains shown)
VH: QVQLQESGPGLVKPSQTLSLTCTVSGDSISSGGYYWSWIRQHPGKGLEWIGYIYYSGSAYYNPSLKSRVTISLDTSKNQFSLKLSSVTAADTAVYYCARDSVAGFSIFDYWGQGTLVTVSS
VL: SSELTQDPAVSVALGQTVRITCQGDSLRSYYASWYQQKPGQAPVRVIYGKNNRPSGIPDRFSGSSSGNTASLTITGAQAEDEADYYCNSWDSSGNHVVFGGGTKLTVL
B2: antibody 300 (antibody, V domains shown)
VH: QVQLVESGGGVVQPGRSLTLSCAASGFTFSSYAMHWVRQAPGKGLEWVALISYDGNNKYYADSVKGRFTFSRDNSKNTLYLQMNSLRAEDTAVYYCARTNSGSYRTAFDYWGQGTLVTVSS
VL: DIQMTQSPSTLSASVGDRVTITCRASQSISIWLAWYQQKPGKAPKLLIYKASSLESGVPSRFSGSGSGTEFTLTISSLQPDDFATYYCQQYNSLWTFGQGTKVEIK
B3: antibody 281 (antibody, V domains shown)
VH: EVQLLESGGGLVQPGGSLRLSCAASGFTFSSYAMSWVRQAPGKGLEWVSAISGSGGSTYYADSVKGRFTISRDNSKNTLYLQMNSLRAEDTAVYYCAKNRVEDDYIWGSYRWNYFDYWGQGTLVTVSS
VL: QSALTQPASVSGSPGQSITISCTGTSSDVGSYNLVSWYQQHPGKAPKLMIYEVSKRPSGVSNRFSGSKSGNTASLTISGLQAEDEADYYCCSYAGSSTHVVFGGGTKLTVL
B4: antibody 299 (antibody, V domains shown)
VH: not shown
VL: EIVLTQSPATLSLSPGERATLSCRASQSVSSYLAWYQQKPGQAPRLLIYDASNRATGIPARFSGSGSGTDFTLTISSLEPEDFAVYYCQQRSNWPWTFGQGTKVEIK
B5: antibody 290 (antibody, V domains shown)
VH: QVHLVQSGAEVKKPGASVKVSCAASGYTFNNYGVSWVRQAPGQGLEWMGWISASNGNTKYAQNLQGRVTMTTDTSTSTAYMELRSLRSDDTAVYYCARDLVGPTAPNYYYGMDVWGQGTAVTVSS
VL: QSVLTQPPSVSGAPGQRVTISCTGSSSSIGAGYDVHWYQQLPGTAPKLLIYANSNRPSGVPDRLSGSKSGTSASLAITGLQAEDEADYYCQSYDSSLSGYVFGTGTKVTVL
B6: antibody 273 (antibody, V domains shown)
VH: QVQLVQSGAEVKKPGASVKVSCKVSGYTLTELSMHWVRQAPGKGLEWMGGFDPEDGETIYAQKFQGRVTMTEDTSTDTAYMELSSLRSEDTAVYYCATAPGYYDSSAPQPINWFDPWGQGTLVTVSS
VL: QSALTQPASVSGSPGQSITISCTGTSSDVGSYNLVSWYQQHPGKAPKLMIYEVSKRPSGVSNRFSGSKSGNTASLTISGLQAEDEADYYCCSYAGSSTLVFGGGTKLTVL
B7: antibody 263 (antibody, V domains shown)
VH: EVQLVQSGAEVKKPGATVKISCKVSGYTFTDYYMHWVQQAPGKGLEWMGLVDPEDGETIYAEKFQGRVTITADTSTDTAYMELSSLRSDDTAVYYCTTDLAFTIFGGRRGFDPWGQGTLVTVSS
VL: DIQLTQSPSFLSASVGDRVTITCRASQGISSYLAWYQQKPGKAPKLLIYAASTLQSGVPSRFSGSGSGTEFTLTISSLQPEDFATYYCQQLNSYDFGQGTRLEIK
B8: antibody 294 (antibody, V domains shown)
VH: EVQLVESGGGLVQPGGSLRLSCAASGFTVSSNYMNWVRQAPGKGLEWVSVIYSGGSTYYADSVKGRFTISRDNSKNTLYLQMNSLRAEDTAVYYCARDLGPSGMDVWGQGTTVTVSS
VL: DIQMTQSPSSVSASVGDRVTITCRASQGISSWLAWYQQKPGKAPKLLIYAASSLQSGVPSRFSGSGSGTDFTLTISSLQPEDFATYYCQQANSFPLFGGGTKVEIK
B9: antibody 295 (antibody, V domains shown)
VH: QVQLQESGPGLVKPSQTLSLTCTVSGGSISSSDYYWSWIRQPPGKGLEWIGYIYYSGSTYYNPSLKSRVTISVDTSKNQFSLKLSSVTAADTAVYYCARVVGYCSSTSCYVDYWGQGTLVTVSS
VL: EIVLTQSPATLSLSPGERVTLSCRASQSVSSYLAWYQQKPGQAPRLLIYDASNRATGIPARFSGSGSGTDFTLTISSLEPEDFAVYYCQQRSNWPPGLTFGGGTKVEIK
B10: antibody 266 (antibody, V domains shown)
VH: QVQLVESGGGVVQPGRSLRLSCAASGFNLSNYAMHWVRQPSGKGLEWVSLISYDGSIKYYTDSVKGRFTVSGDNSKNTLFLQMNSLRPDDSALYYCVRGGVSGPNSFDMWGQGTTVTVSS
VL: DVVMTQSPLSLPVTLGQPASISCRSSQSLVYSDGNTYVNWFQQRPGQSPRRLIYQVSIRASGVPDRFSGSGSGTDFALKISRVEAEDVGVYYCMQGTHWPVTFGQGTKVEIK
B11: antibody 264 (antibody, V domains shown)
VH: QVHLVESGGGVVQPGRSLRLSCAASGFTLTSYAMHWVRQAPGKGLEWVALISYDGSVKKYAESVKGRITVSGDNSRNTLHLQINTLRADDTAVYYCVRGGVSGPNSFDLWGQGTMVTVSS
VL: B10 VL with V30E, I58N, A77T, K79Q, V90I
B12: antibody 303 (antibody, V domains shown)
VH: B10 VH with N31S, P40A, T61A, T78M, P88A, S106A, M109I
VL: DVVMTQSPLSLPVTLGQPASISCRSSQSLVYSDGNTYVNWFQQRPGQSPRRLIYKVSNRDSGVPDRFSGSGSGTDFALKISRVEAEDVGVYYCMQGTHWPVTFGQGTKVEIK
B13: antibody 265 (antibody, V domains shown)
VH: EVQLVQSGAEVKKPGATVKVSCKFSGDTFSHYYIHWVQQAPGKGLEWMGLVDPQDGESEYAQKFQGKVTITADTSIDTSYLEVTSLRFDDTAFYFCATRGMSGAFDRWGQGTLVTVSS
VL: DIVMTQSPDSLAVSLGERATINCKSSQSILSTSNNKNYLAWYQQKPGQPPKLLIYWASTRESGVPDRFSGGGSGTDFTLTISSLQAEDVAVYYCQQYYRTAYTTPIYTFGQGTKLEIK
B14: antibody 301 (antibody, V domains shown)
VH: QVQLVQSGAEVKKPGASVKVSCKVSGYTLTELSMHWVRQAPGKGLEWMGGFDPEDGETIYAQKFQGRVTMTEDTSTDTAYMELSSLRSEDTAVYYCATAFCGGDCYPPDALDIWGQGTMVTVSS
VL: DIQMTQSPSSVSASVGDRVTITCRASQGISSWLAWYQQKPGKAPKLLIYAASSLQSGVPSRFSGSGSGTDFTLTISSLQPEDFATYYCQQANSFPLTFGGGTKVEIK
B15: antibody 260 (antibody, V domains shown)
VH: EVQLVESGGGLVQPGRSLRLSCAASGFTFDYYAMHWVRQAPGKGLEWVSGISWNSGTIGYADSVKGRFTISRDNAKNSLYLQMNSLRAEDTALYYCAKDSRPSGRYYYGMDVWGQGTTVTVSS
VL: not shown
B16: antibody 259 (antibody, V domains shown)
VH: EVQLVQSGAEVKKPGATVKISCKVSGYTFTDYYMHWVQQAPGKGLEWMGLVDPEDGETIYAEKFQGRVTITADTSTDTAYMELSSLRSEDTAVYYCATDLLSWKLYCSGGSCPQMDVWGQGTTVTVSS
VL: DIQMTQSPSSLSASVGDRVTITCRASQGIRNDLGWYQQKPGKAPKRLIYAASSLQSGVPSRFSGSGSGTEFTLTISSLQPEDFATYYCLQHNSYPQTFGQGTKLEIK
B17: antibody 288 (antibody, V domains shown)
VH: EVQLVESGGGLVQPGGSLRLSCAASGFTFSSYDMHWVRQATGKGLEWVSAIGTAGDTYYPGSVKGRFTISRENAKNSLYLQMNSLRAGDTAVYYCARGANRDYDILTGYYSYYYYGMDVWGQGTTVTVSS
VL: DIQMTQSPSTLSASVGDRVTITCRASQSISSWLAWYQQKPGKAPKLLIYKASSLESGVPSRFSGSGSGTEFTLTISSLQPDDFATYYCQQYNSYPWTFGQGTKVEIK
B18: antibody 273 (antibody, V domains shown)
VH: B6 VH
VL: B6 VL
B19: antibody 263 (antibody, V domains shown)
VH: B7 VH
VL: B7 VL
B20: antibody 270 (antibody, V domains shown)
VH: QVQLVQSGAEVKRPGTSVKVSCKTSGYTFTDHFIHWVRQAPGRRLEWMGWINPNSGGTNYAQNFQGRVTMTRDTSITTAYMDLTRLTSDDTAIYYCAREAAYGSGNLNWFDPWGQGTRVTVSS
VL: NFMLTQPHSVSESPGKTVTISCTGSSGSIAANYVHWYQQRPGSAPRTVIYEDNQRPSGVPDRFSGSIDSSSNSASLTISGLKTEDEADYYCQSYDGDSWVFGGGTKLTVL
B21: antibody 265 (antibody, V domains shown)
VH: B13 VH
VL: B13 VL
B22: antibody 260 (antibody, V domains shown)
VH: B15 VH
VL: not shown
B23: antibody 267 (antibody, V domains shown)
VH: EVHLVQSGAEMKKPGATVKISCKVSGNTFIDHYIQWVQQAPGKGFEWMGLVDPEDGETIYAEKFQGRVTITADTSRDTAYMELSSLKSEDTAVYYCGTHGDYLDYWGQGTLVTVSS
VL: FYELTQPSSVSVSPGQTALITCSGDVVAKKYARWFQQKAGQAPVLVIYKDTERPSGIPERISGSSSGTTVTLTISGAQVEDEADYYCYSATDNNLVFGGGTKVTVL

These binders were tested against SARS-CoV-2 full length spike protein (wild type) (SARS-CoV-2, UniProt P0DTC2 14-1208).

In order of falling “binding signal, bead assay (fold over isotype)” value:
1. B13  1280
2. B8  1230
3. B6  924
4. B14  865
5. B1  748
6. B15  724
7. B7  722
8. B2  721
9. B9  599
10. B11  598
11. B3  570
12. B10  473
13. B12  341
14. B4  1.43
15. B5  1.16

Each binder was assayed against full-length trimeric SARS-CoV spike protein (SARS-CoV, UniProt P59594 14-1190).

In order of falling “median fluorescence intensity, fold over isotype control” value:
1. B22  108 fold over isotype
2. B23  16.9 fold over isotype
3. B20  1.34 fold over isotype
4. B18  1.23 fold over isotype
5. B19  1.13 fold over isotype
6. B21  1.09 fold over isotype
7. B16  1.03 fold over isotype
8. B17  1 fold over isotype
